# Assay results from patent US20250361268A1, “NOVEL ANTI-INFLAMMATORY PEPTIDE AND USE THEREOF” (NOVACELL TECHNOLOGY INC., priority 2022, published 2025).
# T1: formyl peptide receptor 2 (FPR2) (UniProt P25090 1-351, limits assumed)
# T1 sequence (looked up): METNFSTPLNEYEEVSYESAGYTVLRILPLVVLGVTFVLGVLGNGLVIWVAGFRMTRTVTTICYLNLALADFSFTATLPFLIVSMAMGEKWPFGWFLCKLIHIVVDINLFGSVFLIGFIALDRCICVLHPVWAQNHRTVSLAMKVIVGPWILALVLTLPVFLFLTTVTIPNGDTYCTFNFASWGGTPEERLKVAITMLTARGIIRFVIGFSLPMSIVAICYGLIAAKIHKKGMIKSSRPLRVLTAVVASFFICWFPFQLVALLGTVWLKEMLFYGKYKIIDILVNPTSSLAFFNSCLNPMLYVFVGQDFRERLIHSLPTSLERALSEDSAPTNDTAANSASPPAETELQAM
# T2: FPR1 (UniProt P21462 1-350, limits assumed)
# T2 sequence (looked up): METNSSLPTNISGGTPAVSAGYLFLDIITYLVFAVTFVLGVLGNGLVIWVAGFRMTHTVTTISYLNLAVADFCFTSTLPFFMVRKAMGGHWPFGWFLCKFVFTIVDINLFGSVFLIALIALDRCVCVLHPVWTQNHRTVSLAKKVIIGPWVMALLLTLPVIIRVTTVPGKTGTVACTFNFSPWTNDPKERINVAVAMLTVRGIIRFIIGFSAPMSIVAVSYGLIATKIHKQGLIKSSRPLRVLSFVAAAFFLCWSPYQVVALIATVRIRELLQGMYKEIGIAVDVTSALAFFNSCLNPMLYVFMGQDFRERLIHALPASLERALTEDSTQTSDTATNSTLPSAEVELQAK
# B1: peptide of SEQ ID NO 94 (peptide)
# peptide: RWRYYVM
# HELM: PEPTIDE1{R.W.R.Y.Y.V.[dM].[am]}$$$$V2.0; N-terminus assumed
# SMILES: CSCC[C@@H](NC(=O)[C@@H](NC(=O)[C@H](Cc1ccc(O)cc1)NC(=O)[C@H](Cc1ccc(O)cc1)NC(=O)[C@H](CCCNC(=N)N)NC(=O)[C@H](Cc1c[nH]c2ccccc12)NC(=O)[C@@H](N)CCCNC(=N)N)C(C)C)C(N)=O
# B2: peptide of SEQ ID NO 96 (peptide)
# peptide: KWKYYVM
# HELM: PEPTIDE1{K.W.K.Y.Y.V.[dM].[am]}$$$$V2.0; N-terminus assumed
# SMILES: CSCC[C@@H](NC(=O)[C@@H](NC(=O)[C@H](Cc1ccc(O)cc1)NC(=O)[C@H](Cc1ccc(O)cc1)NC(=O)[C@H](CCCCN)NC(=O)[C@H](Cc1c[nH]c2ccccc12)NC(=O)[C@@H](N)CCCCN)C(C)C)C(N)=O
# B3: peptide of SEQ ID NO 93 (peptide)
# peptide: HMRYWYM
# HELM: PEPTIDE1{[CCCC(=O)[*:2]].H.M.R.Y.W.Y.[dM].[am]}$$$$V2.0
# SMILES: CCCC(=O)N[C@@H](Cc1c[nH]cn1)C(=O)N[C@@H](CCSC)C(=O)N[C@@H](CCCNC(=N)N)C(=O)N[C@@H](Cc1ccc(O)cc1)C(=O)N[C@@H](Cc1c[nH]c2ccccc12)C(=O)N[C@@H](Cc1ccc(O)cc1)C(=O)N[C@H](CCSC)C(N)=O
# B4: peptide of SEQ ID NO 76 (peptide)
# peptide: WRYKPM
# HELM: PEPTIDE1{[ac].W.R.Y.K.P.[dM].[am]}$$$$V2.0
# SMILES: CSCC[C@@H](NC(=O)[C@@H]1CCCN1C(=O)[C@H](CCCCN)NC(=O)[C@H](Cc1ccc(O)cc1)NC(=O)[C@H](CCCNC(=N)N)NC(=O)[C@H](Cc1c[nH]c2ccccc12)NC(C)=O)C(N)=O
# B5: peptide of SEQ ID NO 75 (peptide)
# peptide: RWRYKPM
# HELM: PEPTIDE1{[CCCC(=O)[*:2]].R.W.R.Y.K.P.[dM].[am]}$$$$V2.0
# SMILES: CCCC(=O)N[C@@H](CCCNC(=N)N)C(=O)N[C@@H](Cc1c[nH]c2ccccc12)C(=O)N[C@@H](CCCNC(=N)N)C(=O)N[C@@H](Cc1ccc(O)cc1)C(=O)N[C@@H](CCCCN)C(=O)N1CCC[C@H]1C(=O)N[C@H](CCSC)C(N)=O
# B6: peptide of SEQ ID NO 155 (peptide)
# peptide: RWRYNYM
# HELM: PEPTIDE1{R.W.R.Y.N.Y.[dM].[am]}$$$$V2.0; N-terminus assumed
# SMILES: CSCC[C@@H](NC(=O)[C@H](Cc1ccc(O)cc1)NC(=O)[C@H](CC(N)=O)NC(=O)[C@H](Cc1ccc(O)cc1)NC(=O)[C@H](CCCNC(=N)N)NC(=O)[C@H](Cc1c[nH]c2ccccc12)NC(=O)[C@@H](N)CCCNC(=N)N)C(N)=O
# B7: peptide of SEQ ID NO 40 (peptide)
# peptide: RMRYKYM
# HELM: PEPTIDE1{[CCCCCCCC(=O)[*:2]].R.M.R.Y.K.Y.[dM].[am]}$$$$V2.0
# SMILES: CCCCCCCC(=O)N[C@@H](CCCNC(=N)N)C(=O)N[C@@H](CCSC)C(=O)N[C@@H](CCCNC(=N)N)C(=O)N[C@@H](Cc1ccc(O)cc1)C(=O)N[C@@H](CCCCN)C(=O)N[C@@H](Cc1ccc(O)cc1)C(=O)N[C@H](CCSC)C(N)=O
# B8: peptide of SEQ ID NO 145 (peptide)
# peptide: IKYKPM
# HELM: PEPTIDE1{[CCCCCCCC(=O)[*:2]].I.K.Y.K.P.[dM].[am]}$$$$V2.0
# SMILES: CCCCCCCC(=O)N[C@H](C(=O)N[C@@H](CCCCN)C(=O)N[C@@H](Cc1ccc(O)cc1)C(=O)N[C@@H](CCCCN)C(=O)N1CCC[C@H]1C(=O)N[C@H](CCSC)C(N)=O)[C@@H](C)CC
# B9: peptide of SEQ ID NO 131 (peptide)
# peptide: IKFKYM
# HELM: PEPTIDE1{I.K.F.K.Y.[dM].[am]}$$$$V2.0; N-terminus assumed
# SMILES: CC[C@H](C)[C@H](N)C(=O)N[C@@H](CCCCN)C(=O)N[C@@H](Cc1ccccc1)C(=O)N[C@@H](CCCCN)C(=O)N[C@@H](Cc1ccc(O)cc1)C(=O)N[C@H](CCSC)C(N)=O
# B10: peptide of SEQ ID NO 20 (peptide)
# peptide: MKYKVM
# HELM: PEPTIDE1{[CCCCCCCC(=O)[*:2]].M.K.Y.K.V.[dM].[am]}$$$$V2.0
# SMILES: CCCCCCCC(=O)N[C@@H](CCSC)C(=O)N[C@@H](CCCCN)C(=O)N[C@@H](Cc1ccc(O)cc1)C(=O)N[C@@H](CCCCN)C(=O)N[C@H](C(=O)N[C@H](CCSC)C(N)=O)C(C)C
# B11: peptide of SEQ ID NO 16 (peptide)
# peptide: MRYKVM
# HELM: PEPTIDE1{[CCCCCCCC(=O)[*:2]].M.R.Y.K.V.[dM].[am]}$$$$V2.0
# SMILES: CCCCCCCC(=O)N[C@@H](CCSC)C(=O)N[C@@H](CCCNC(=N)N)C(=O)N[C@@H](Cc1ccc(O)cc1)C(=O)N[C@@H](CCCCN)C(=O)N[C@H](C(=O)N[C@H](CCSC)C(N)=O)C(C)C
# B12: peptide of SEQ ID NO 32 (peptide)
# peptide: RWRYKYM
# HELM: PEPTIDE1{R.W.R.Y.K.Y.[dM].[am]}$$$$V2.0; N-terminus assumed
# SMILES: CSCC[C@@H](NC(=O)[C@H](Cc1ccc(O)cc1)NC(=O)[C@H](CCCCN)NC(=O)[C@H](Cc1ccc(O)cc1)NC(=O)[C@H](CCCNC(=N)N)NC(=O)[C@H](Cc1c[nH]c2ccccc12)NC(=O)[C@@H](N)CCCNC(=N)N)C(N)=O
# B13: peptide of SEQ ID NO 132 (peptide)
# peptide: IKFKVM
# HELM: PEPTIDE1{I.K.F.K.V.[dM].[am]}$$$$V2.0; N-terminus assumed
# SMILES: CC[C@H](C)[C@H](N)C(=O)N[C@@H](CCCCN)C(=O)N[C@@H](Cc1ccccc1)C(=O)N[C@@H](CCCCN)C(=O)N[C@H](C(=O)N[C@H](CCSC)C(N)=O)C(C)C
# B14: peptide of SEQ ID NO 130 (peptide)
# peptide: IKKWMM
# HELM: PEPTIDE1{I.K.K.W.M.[dM].[am]}$$$$V2.0; N-terminus assumed
# SMILES: CC[C@H](C)[C@H](N)C(=O)N[C@@H](CCCCN)C(=O)N[C@@H](CCCCN)C(=O)N[C@@H](Cc1c[nH]c2ccccc12)C(=O)N[C@@H](CCSC)C(=O)N[C@H](CCSC)C(N)=O
# B15: peptide of SEQ ID NO 42 (peptide)
# peptide: MRYKYM
# HELM: PEPTIDE1{[ac].M.R.Y.K.Y.[dM].[am]}$$$$V2.0
# SMILES: CSCC[C@H](NC(C)=O)C(=O)N[C@@H](CCCNC(=N)N)C(=O)N[C@@H](Cc1ccc(O)cc1)C(=O)N[C@@H](CCCCN)C(=O)N[C@@H](Cc1ccc(O)cc1)C(=O)N[C@H](CCSC)C(N)=O
# B16: peptide of SEQ ID NO 152 (peptide)
# peptide: RWRYRIM
# HELM: PEPTIDE1{R.W.R.Y.R.I.[dM].[am]}$$$$V2.0; N-terminus assumed
# SMILES: CC[C@H](C)[C@H](NC(=O)[C@H](CCCNC(=N)N)NC(=O)[C@H](Cc1ccc(O)cc1)NC(=O)[C@H](CCCNC(=N)N)NC(=O)[C@H](Cc1c[nH]c2ccccc12)NC(=O)[C@@H](N)CCCNC(=N)N)C(=O)N[C@H](CCSC)C(N)=O
# B17: peptide of SEQ ID NO 39 (peptide)
# peptide: RMRYKYM
# HELM: PEPTIDE1{[ac].R.M.R.Y.K.Y.[dM].[am]}$$$$V2.0
# SMILES: CSCC[C@H](NC(=O)[C@H](CCCNC(=N)N)NC(C)=O)C(=O)N[C@@H](CCCNC(=N)N)C(=O)N[C@@H](Cc1ccc(O)cc1)C(=O)N[C@@H](CCCCN)C(=O)N[C@@H](Cc1ccc(O)cc1)C(=O)N[C@H](CCSC)C(N)=O
# B18: peptide of SEQ ID NO 34 (peptide)
# peptide: RWRYKYM
# HELM: PEPTIDE1{[CCCCCCCC(=O)[*:2]].R.W.R.Y.K.Y.[dM].[am]}$$$$V2.0
# SMILES: CCCCCCCC(=O)N[C@@H](CCCNC(=N)N)C(=O)N[C@@H](Cc1c[nH]c2ccccc12)C(=O)N[C@@H](CCCNC(=N)N)C(=O)N[C@@H](Cc1ccc(O)cc1)C(=O)N[C@@H](CCCCN)C(=O)N[C@@H](Cc1ccc(O)cc1)C(=O)N[C@H](CCSC)C(N)=O
# B19: peptide of SEQ ID NO 153 (peptide)
# peptide: RWRYRTM
# HELM: PEPTIDE1{R.W.R.Y.R.T.[dM].[am]}$$$$V2.0; N-terminus assumed
# SMILES: CSCC[C@@H](NC(=O)[C@@H](NC(=O)[C@H](CCCNC(=N)N)NC(=O)[C@H](Cc1ccc(O)cc1)NC(=O)[C@H](CCCNC(=N)N)NC(=O)[C@H](Cc1c[nH]c2ccccc12)NC(=O)[C@@H](N)CCCNC(=N)N)[C@@H](C)O)C(N)=O
# Target: T1, formyl peptide receptor 2 (FPR2)
# Assay: cell-based or functional assay
row,EC50 for [Ca2+] [µM],Binder
1,< 0.01,B1
2,< 0.01,B2
3,< 0.01,B3
4,< 0.01,B4
5,< 0.01,B5

# Target: T2, FPR1
# Assay: cell-based or functional assay
row,EC50 for [Ca2+] [µM],Binder
1,> 10,B6
2,> 10,B7
3,> 10,B8
4,> 10,B9
5,> 10,B10
6,> 10,B11
7,> 10,B12
8,> 10,B13
9,> 10,B14
10,> 10,B15
11,> 10,B16
12,> 10,B17
13,> 10,B18
14,> 10,B19
